The supplement of paper PMC10126150
± gives the standard deviation of the averaged measurements.

What follows are sequences tested on ATP (assay: switch fluorescence ratio, 500 uM ATP over buffer (Cy3 cluster intensity, sum of 5 cycles each) (fold (ratio)); higher = stronger signal-on switching upon ATP binding; sequences stand for … in TCGTCGGCAGCGTCAGATGTGTATAAGAGACAGTTTTTTTTTTTTTTTTTTTTTTTTT…TC). Conditions: aptamer strand: ATP DNA aptamer (quencher-CACCTGGGGGAGTATTGCGGAGGAAGG + anchor), 100 nM annealed; ATP concentration: 500 uM.
Method in brief: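 Exposure to 500 uM ATP lasted 15 min at 22 °C before imaging, and a selection-buffer image was taken beforehand, for Cy3-labelled switching-strand clusters on a modified Illumina MiSeq flow-cell annealed to 100 nM quencher-labelled ATP aptamer. Five buffer/ATP cycles were run with NaOH stripping and re-annealing between them. The fluorescence ratio per cluster is summed target-cycle over summed buffer-cycle Cy3 intensity, averaged per switch-domain sequence. Clusters outside 100-1000 RFU were excluded.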

In order of falling switch fluorescence ratio:
1. TTTGCATACT  2.75 ± 2.4
2. TCCGGGGTGC  2.36 ± 1
3. CGTCCGGGGA  1.56 ± 0.075
4. CGGGCGATAA  1.45 ± 0.0045
5. AAAAGTCCGC  1.45 ± 0.062
6. ACCGAGCATG  1.36 ± 0.1
7. TCGTTTTACT  1.34 ± 0.44
8. TGCTCCTAAC  1.3 ± 0.051
9. ACGGTATTG  1.19 ± 0.037
10. CACAGGGGGG  1.19 ± 0.34
11. ACAAACACTT  1.158 ± 0.01
12. ACGCAGTTCC  1.151 ± 0.0075
13. TTTACGATTA  1.14 ± 0.067
14. TTTGTGCTC  1.13 ± 0.15
15. GCCCATAGAC  1.12 ± 0.041
16. CGGGAATCCT  1.11 ± 0.04
17. TTTAGCTGT  1.1 ± 0.17
18. AGACGGTCAA  1.08 ± 0.032
19. ACGCGGCGAT  1.08 ± 0.026
20. ATCCGGACCC  1.08 ± 0.1
21. GAACGTCTGC  1.08 ± 0.011
22. GCGTTAACTC  1.08 ± 0.026
23. TGACAGCCTT  1.068 ± 0.0032
24. TTGAGGTTA  1.07 ± 0.069
25. TTAAATGCCT  1.07 ± 0.028
26. GAAGCATTTT  1.07 ± 0.045
27. TACAGACCCG  1.07 ± 0.062
28. GCTAACCCTT  1.06 ± 0.0036
29. TTCTGTAGCG  1.06 ± 0.13
30. CGGATTCCCC  1.06 ± 0.011
31. AACATAGGTC  1.06 ± 0.04
32. TGGGGAGAAC  1.055 ± 0.0077
33. CGAGACCACA  1.05 ± 0.043
34. CCGTTGTGGT  1.05 ± 0.068
35. GCCGGGACGC  1.05 ± 0.049
36. GGCGCTCACA  1.04 ± 0.028
37. TACCGCGGTT  1.04 ± 0.03
38. AACGTAGGTA  1.038 ± 0.0051
39. CGTATCTGAC  1.04 ± 0.014
40. AGACAGGGG  1.04 ± 0.017
41. ATTGCTATTC  1.03 ± 0.014
42. AGATGATAGG  1.0282 ± 0.00044
43. AAGATATTCT  1.027 ± 0.0091
44. TGCGGTAAAA  1.03 ± 0.063
45. AACATTCGTT  1.034 ± 0.0042
46. AATACGAGAG  1.03 ± 0.019
47. GCGGAAGATC  1.03 ± 0.021
48. GGGTAGGGCC  1.026 ± 0.0023
49. CCCTTGTACG  1.03 ± 0.036
50. TACTTTGGGC  1.03 ± 0.065
51. AAGTCTGTTT  1.03 ± 0.028
52. GGCATAGAGG  1.03 ± 0.0032
53. TGTTATAGGG  1.03 ± 0.033
54. AGCAGTGCGG  1.03 ± 0.024
55. TTTATTTACG  1.033 ± 0.0082
56. AGCATTGGTT  1.02 ± 0.035
57. TTGGTCGGGT  1.02 ± 0.024
58. CCATTTATTT  1.02 ± 0.019
59. ACAGAGGCAC  1.02 ± 0.062
60. TTAGTAGTGC  1.02 ± 0.035
61. ACGGTGACGG  1.02 ± 0.04
62. GGGGCGGCGA  1.02 ± 0.047
63. TAATGCAGGA  1.02 ± 0.015
64. GCGCGGCTGG  1.02 ± 0.00077
65. TTTATAGGTT  1.02 ± 0.069
66. TAGGTTTGCA  1.02 ± 0.039
67. TTGGGAAGTT  1.02 ± 0.031
68. TTTTTACGGG  1.02 ± 0.043
69. ACTAGTCAAA  1.02 ± 0.012
70. TGTCATCTAC  1.02 ± 0.016
71. GTCTTGGCTC  1.02 ± 0.031
72. GGGAGGGAGC  1.02 ± 0.06
73. CTTATAACAG  1.01 ± 0.018
74. TCTGGCAGAT  1.01 ± 0.028
75. TTTTGAGTCG  1.01 ± 0.033
76. GGGGGAGGGC  1.01 ± 0.031
77. CTGATGTCGT  1.01 ± 0.033
78. TATGGGCAGT  1.007 ± 0.0017
79. TGGGAATTTT  1.01 ± 0.049
80. AGGGTTATTG  1.01 ± 0.047
81. CCAATTTTTA  1.01 ± 0.03
82. GGGGTGATCC  1.01 ± 0.012
83. GACTTTAAGC  1.01 ± 0.032
84. GCCGAATATG  1.01 ± 0.015
85. GGATTGGTGG  1.01 ± 0.024
86. TTTTCATTTG  1.01 ± 0.034
87. GGGGGGGGGA  1.01 ± 0.039
88. GGGGCCGTGC  1.01 ± 0.038
89. ATAAGGGCCA  1.01 ± 0.036
90. GGGAAATTGA  1.01 ± 0.031
91. TGCCGGCTCG  1.01 ± 0.012
92. TGCTGCTCAG  1.01 ± 0.032
93. GGCCGTTTTC  1.01 ± 0.00017
94. AATTGCCAGT  1.01 ± 0.018
95. CGTTTGAGGA  1.01 ± 0.03
96. GAAGTTCGGC  1.006 ± 0.0056
97. GGTCGCCCAG  1.01 ± 0.035
98. ATAGGGGGAG  1 ± 0.033
99. GTTATGACTC  1 ± 0.076
100. TGATCATGCG  1 ± 0.011
101. TTTCCATTCT  1 ± 0.015
102. AGGGACGGTG  1 ± 0.056
103. GTTTATGCAT  1 ± 0.022
104. TTAAATGGGT  1 ± 0.033
105. TAAAATTGAG  1 ± 0.024
106. GGGATTACCA  1 ± 0.056
107. GGGGTTTAAT  1 ± 0.034
108. TTGTAGTCGG  1 ± 0.053
109. ATTTGCTATT  1.003 ± 0.0045
110. ATTGTGCGAC  1 ± 0.021
111. CGTACTTTTT  1 ± 0.032
112. AGTAAGGTTA  1 ± 0.024
113. CTTATTCGAT  0.999 ± 0.012
114. AATTATGGGG  0.999 ± 0.032
115. CTAAGGCGTT  0.999 ± 0.013
116. AACGTGTGGA  0.9979 ± 0.0093
117. TATGGATAGT  0.998 ± 0.017
118. ATTAATAGTT  0.997 ± 0.053
119. GGGGGAGCAC  0.997 ± 0.017
120. GAAAGTAATT  0.996 ± 0.051
121. AGAATGCAGC  0.995 ± 0.041
122. ACGGGGGATG  0.995 ± 0.025
123. TGTGAGAGGT  0.995 ± 0.012
124. TCGTGGCGCT  0.995 ± 0.048
125. GGGGGGGTCA  0.994 ± 0.027
126. AGTGAGGCTC  0.994 ± 0.011
127. TAATAAATGT  0.9941 ± 0.0044
128. GGGTTGGTCA  0.994 ± 0.0094
129. TATAAATGTT  0.9936 ± 0.0065
130. GGCGGTGGCG  0.994 ± 0.1
131. CAGTTTAAGT  0.993 ± 0.01
132. CAGTTTTTGG  0.992 ± 0.013
133. ATCCCTTGAG  0.992 ± 0.032
134. CATGGGTTTG  0.9923 ± 0.0031
135. GAGATGGGGA  0.991 ± 0.022
136. AAGCGGTGAG  0.989 ± 0.031
137. CAATGTGGGG  0.989 ± 0.056
138. TACTTGTGTG  0.988 ± 0.011
139. GGTTTGCGTG  0.988 ± 0.0043
140. GAGGCGTATT  0.988 ± 0.049
141. CTTTATGGGA  0.988 ± 0.031
142. TTGGGCCCGG  0.9878 ± 0.0073
143. AATTTTATTG  0.988 ± 0.05
144. CAAGTGAGGC  0.987 ± 0.075
145. AGATCTTCTT  0.987 ± 0.015
146. ACATGGTTAG  0.987 ± 0.03
147. GGGTTCCTAT  0.987 ± 0.013
148. TGGAAAGTGT  0.987 ± 0.018
149. GGGTATGTGT  0.986 ± 0.015
150. AGTCGGTTCG  0.986 ± 0.03
151. TGTGTGGTTT  0.986 ± 0.036
152. CCATATTTTT  0.985 ± 0.015
153. TGCGTGCTGG  0.985 ± 0.022
154. AAGAAGGTTG  0.9847 ± 0.0061
155. ATTAGAAGGG  0.985 ± 0.061
156. GCGTGAGCGA  0.985 ± 0.042
157. TGGATATTTG  0.983 ± 0.065
158. TAGGGAAAAT  0.9833 ± 0.0029
159. TATGTGCTGT  0.983 ± 0.011
160. AGTTGAAATA  0.9816 ± 0.0066
161. TTATAAAAAC  0.982 ± 0.076
162. GATTGCCTGT  0.981 ± 0.029
163. CTTAGCCGGG  0.981 ± 0.032
164. CTATGGAAGG  0.98 ± 0.013
165. GTGCTAGTCT  0.979 ± 0.067
166. AGTGCGTGCG  0.979 ± 0.059
167. AAAGGATGAG  0.979 ± 0.019
168. GTCAATTTGA  0.978 ± 0.062
169. TGTGGGTGGG  0.978 ± 0.025
170. CTTAGATGGA  0.978 ± 0.023
171. ATAAGTTTTG  0.978 ± 0.027
172. TTTGGGACGT  0.978 ± 0.03
173. GGTAAACGCG  0.977 ± 0.016
174. ACATCGTGTT  0.977 ± 0.033
175. AACAGAGTAG  0.976 ± 0.028
176. GATGTTGTGG  0.9751 ± 0.0029
177. TGCGGGGAGC  0.975 ± 0.041
178. CATTGTGGGT  0.975 ± 0.019
179. CTTTTTAACA  0.9742 ± 0.0062
180. TTTGGATACA  0.9739 ± 0.0012
181. ATTGGGAGGT  0.972 ± 0.033
182. TCGCGGCGCG  0.972 ± 0.011
183. ATTGGTGTAG  0.972 ± 0.023
184. TTAGAGGGAC  0.971 ± 0.014
185. ATCTGATTGA  0.97124 ± 0.00072
186. TTGATTAGTA  0.97 ± 0.028
187. TTTCTGTGCT  0.97009 ± 7e-05
188. CGTAAATTGT  0.9672 ± 0.0039
189. GAGTTAGAAG  0.9657 ± 0.0014
190. ACAAGGGTC  0.964 ± 0.025
191. GAGGCTCATT  0.964 ± 0.035
192. AAGCCTATTG  0.961 ± 0.017
193. CGTAGACGGT  0.9592 ± 0.0063
194. CGTATGGCCT  0.958 ± 0.01
195. GACTTCTTAG  0.9573 ± 0.0041
196. AGTGTGGAAT  0.954 ± 0.011
197. AGAAGAGGTA  0.949 ± 0.024
198. GGGAATCATT  0.948 ± 0.034
199. AAAGAGCGCC  0.947 ± 0.03
200. AGAGGGTGCG  0.934 ± 0.041
